From patent US20230220042A1 (SHANGHAI JIAO TONG UNIVERSITY SCHOOL OF MEDICINE, published 2023) come the findings set out here.

Residue numbers refer to the chain shown, from its start. Names may count otherwise.

One experiment addresses FcγRIIA^131R (human) (UniProt P12318). As to the kind of experiment: ELISA, coated antibody, biotin-FcγR. (In general: In an ELISA, binding on a coated surface is turned into a signal by an enzyme label.)
Another experiment addresses Biotin-FcγRIIB (human) (UniProt P31994). In words: NGS of 3T3 display library C2 flow-sorted for FcγRIIB binding.
Experiment [1] addresses T1, FcγRIIB (human, UniProt P31994 43-217, biotin-labeled).
T1 construct: extracellular domain; Bought protein; also called CD32b
T1 sequence (looked up): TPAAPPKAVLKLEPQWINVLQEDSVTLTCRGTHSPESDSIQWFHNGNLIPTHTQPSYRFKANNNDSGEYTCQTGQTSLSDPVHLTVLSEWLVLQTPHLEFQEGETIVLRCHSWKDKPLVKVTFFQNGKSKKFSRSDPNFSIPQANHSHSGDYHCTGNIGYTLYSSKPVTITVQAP
As to the kind of experiment: ELISA, coated antibody, biotin-FcγR.

In a further experiment the target is T2, FcγRIIA^131H (human, UniProt P12318 34-217, biotin-labeled).
T2 construct: extracellular domain; Bought protein; also called RIIAH
T2 sequence (looked up): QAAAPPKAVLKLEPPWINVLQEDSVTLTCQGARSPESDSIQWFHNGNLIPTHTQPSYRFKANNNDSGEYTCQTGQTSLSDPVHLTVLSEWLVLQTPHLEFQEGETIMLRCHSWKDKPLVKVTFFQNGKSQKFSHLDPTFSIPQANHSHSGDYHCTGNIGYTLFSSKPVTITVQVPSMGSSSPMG
In words: ELISA, coated antibody, biotin-FcγR.

A further experiment addresses T3, FcγRI (human, UniProt P12314 16-292, biotin-labeled).
T3 construct: extracellular domain; Bought protein; also called CD64
In words: ELISA, coated antibody, biotin-FcγR.

The target in the next experiment is T4, FcγRIIIA^158V (human, UniProt P08637 17-208, biotin-labeled).
T4 construct: extracellular domain; Bought protein; also called RIIIAV; CD16a 158V
T4 sequence (P08637 17-208 F176V): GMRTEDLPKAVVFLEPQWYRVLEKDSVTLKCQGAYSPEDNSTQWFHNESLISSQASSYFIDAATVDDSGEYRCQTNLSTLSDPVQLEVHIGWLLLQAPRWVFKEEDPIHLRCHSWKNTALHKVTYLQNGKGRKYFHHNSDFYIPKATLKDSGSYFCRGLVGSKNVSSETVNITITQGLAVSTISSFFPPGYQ
In words: ELISA, coated antibody, biotin-FcγR.

The next experiment concerns the target T5, FcγRIIIA^158F (human, UniProt P08637 17-208, biotin-labeled).
T5 construct: extracellular domain; Bought protein; also called RIIIAF
In words: ELISA, coated antibody, biotin-FcγR.

The target of experiment [2] is T1, FcγRIIB. In words: ELISA; relative affinity to FcγRIIB over that to FcγRIIA131R.
Experiment [3] deals with T6, Biotin-FcγRIIB (human, UniProt P31994 43-217, limits assumed, biotin-labelled).
T6 construct: Bought, biotin-labelled; used at 1 µg/ml for staining and sorting; also called human FcγRIIB; CD32b
T6 sequence (looked up): T1 sequence (looked up)
In words: magnetic sorting on biotin-FcγRIIB with unlabelled activating FcγRs, NGS; Library4. Here is the method:
3T3 cells were collected by trypsin digestion, and a single cell suspension was prepared. […] The cells were incubated for 15 minutes on ice and then washed twice with MACS buffer and re-suspended in 100 μl MACS buffer. Twenty-five μl anti-Biotin magnetic beads were added, and the cells were incubated for 15 minutes on ice and then washed once with MACS buffer and re-suspended to 500 μl, and added to the LS column put in the magnetic field. The effluent was collected, washed with 3 mL of MACS buffer and collected; The LS column was then removed out of the magnetic field, and 5 mL of MACS buffer was used to rapidly elute the remaining cells from the sorting column to collect positive cells, which are the high I/A ratio cells.
The high-FcγRIIB-affinity cells obtained from the above flow cytometry sorting are further sorted by magnetic-activated sorting. The cells are incubated with the mixture of Biotin-labeled FcγRIIB and non-labeled activating FcγRs, and then the labeled cells are sorted by anti-Biotin magnetic beads. The enrichment ratios after sorting relative to before sorting are analyzed by NGS.

Experiment [4] addresses T6, Biotin-FcγRIIB. In words: FACS sorting of displayed Fc library on biotin-FcγRIIB, NGS.
Experiment [5] addresses T6, Biotin-FcγRIIB. As to the kind of experiment: FACS sorting of displayed Fc library on biotin-FcγRIIB, NGS; reference S267E.

T3 sequence (P12314 16-292): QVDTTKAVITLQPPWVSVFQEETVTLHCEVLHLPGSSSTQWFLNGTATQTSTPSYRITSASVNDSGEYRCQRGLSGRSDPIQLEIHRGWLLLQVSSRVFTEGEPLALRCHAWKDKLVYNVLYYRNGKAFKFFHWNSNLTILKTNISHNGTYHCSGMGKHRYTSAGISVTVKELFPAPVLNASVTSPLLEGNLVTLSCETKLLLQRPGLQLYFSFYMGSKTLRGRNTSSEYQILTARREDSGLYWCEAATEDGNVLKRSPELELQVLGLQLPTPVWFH
T5 sequence (P08637 17-208): as the sequence (P08637 17-208 F176V) above, with V160F counted along it

In turn, IgG2 N297A (antibody) showed an Absorbance value in the experiment with FcγRIIA^131R (human) of 0.04 A650.

In the experiment with Biotin-FcγRIIB (human), “human IgG2 anti-mouse CD40 surface displayed antibody, V234Q/V266L/S267D/H268D/E269D/P271Q” showed an enrichment factor, percentage after 3rd sorting/percentage after 2nd sorting of 15.4; a percentage after 2nd sorting of 0%; a percentage after 3rd sorting of 0.04%.

B1: wild-type IgG2 anti-human OX40 antibody (antibody)
heavy: QVQLQESGPGLVKPSGTLSLTCAVSGGSISSSIWWSWVRQPPGKGLEWIGEIHHSGNTNCNPSLKSRVTISIDKSKNQFSLKLTSVTAADTAVYYCARAGTGTTLDYWGQGTLVTVSSASTKGPSVFPLAPCSRSTSESTAALGCLVKDYFPEPVTVSWNSGALTSGVHTFPAVLQSSGLYSLSSVVTVPSSNFGTQTYTCNVDHKPSNTKVDKTVERKCCVECPPCPAPPVAGPSVFLFPPKPKDTLMISRTPEVTCVVVDVSHEDPEVQFNWYVDGVEVHNAKTKPREEQFNSTFRVVSVLTVVHQDWLNGKEYKCKVSNKGLPAPIEKTISKTKGQPREPQVYTLPPSREEMTKNQVSLTCLVKGFYPSDIAVEWESNGQPENNYKTTPPMLDSDGSFFLYSKLTVDKSRWQQGNVFSCSVMHEALHNHYTQKSLSLSPGK
light: EIVLTQSPGTLSLSPGERATLSCRASQSVSGDYLAWYQQKLGQAPRLLIYGASIRATGIPDRFSGSGSGTDFTLTISKLEPEDFAVYYCQQYGSSPLTFGGGTKVEIKRTVAAPSVFIFPPSDEQLKSGTASVVCLLNNFYPREAKVQWKVDNALQSGNSQESVTEQDSKDSTYSLSSTLTLSKADYEKHKVYACEVTHQGLSSPVTKSFNRGEC
notes: also called WTIgG2
In the experiment with FcγRIIA^131R (human), B1 showed an Absorbance value of 0.08 A650 and a Relative binding affinity RIIAR/G1 of 0.29. In the experiment with FcγRIIB [1], the Absorbance value was found to be 0.08 A650, the “Increased factor of RIIB binding compared with wild-type IgG2” value came to 1 fold and the “Relative binding affinity RIIB/G1” value worked out at 0.1 ratio. In the experiment with FcγRIIA^131H, the Absorbance value came to 0.49 A650 and the “Relative binding affinity RIIAH/G1” value was determined as 0.85 ratio. In the experiment with FcγRI, the Absorbance value turned out to be 0.08 A650 and the “Relative binding affinity RI/G1” value was determined as 0.03 ratio. In addition, in the experiment with FcγRIIIA^158V, the Absorbance value is 0.05 A650 and the “Relative binding affinity RIIIAV/G1” value is 0.06 ratio. Besides, in the experiment with FcγRIIIA^158F, the Absorbance value was found to be 0.06 A650 and the “Relative binding affinity RIIIAF/G1” value is 0.3 ratio. In addition, the RIIB/RIIAR with FcγRIIB [2] was 0.34 ratio.

B2: human IgG2 anti-mouse CD40 surface displayed antibody, Fc mutant G327L (antibody, name in EU numbering)
light chain (with the P2A rest): DTVLTQSPALAVSPGERVTISCRASDSVSTLMHWYQQKPGQQPKLLIYLASHLESGVPARFSGSGSGTDFTLTIDPVEADDTATYYCQQSWNDPWTFGGGTKLELKRTVAAPSVFIFPPSDEQLKSGTASVVCLLNNFYPREAKVQWKVDNALQSGNSQESVTEQDSKDSTYSLSSTLTLSKADYEKHKVYACEVTHQGLSSPVTKSFNRGECGSGATNFSLLKQAGDVEENPG
heavy chain: EVQLVESDGGLVQPGRSLKLPCAASGFTFSDYYMAWVRQAPTKGLEWVASISYDGSSTYYRDSVKGRFTISRDNAKSTLYLQMDSLRSEDTATYYCGRHSSYFDYWGQGVMVTVSSASTKGPSVFPLAPCSRSTSESTAALGCLVKDYFPEPVTVSWNSGALTSGVHTFPAVLQSSGLYSLSSVVTVPSSNFGTQTYTCNVDHKPSNTKVDKTVERKCCVECPPCPAPPVAGPSVFLFPPKPKDTLMISRTPEVTCVVVDVSHEDPEVQFNWYVDGVEVHNAKTKPREEQFNSTFRVVSVLTVVHQDWLNGKEYKCKVSNKLLPAPIEKTISKTKGQPREPQVYTLPPSREEMTKNQVSLTCLVKGFYPSDIAVEWESNGQPENNYKTTPPMLDSDGSFFLYSKLTVDKSRWQQGNVFSCSVMHEALHNHYTQKSLSLSPGKLEPPPSTVSNMATVAVLVVLGAAIVTGAVVAFVMKMRRRNTGGKGGDYALAPGSQTSDLSLPDCKVMVHDPHSLA
notes: as m1; positions are Eu numbers; copies: 2 + 2
As for B2, in the experiment with Biotin-FcγRIIB [3], the “Enrichment factor (percentage after sorting/percentage before sorting)” value stood at 3.77, the “Increased factor (mutation enrichment factor/wild-type enrichment factor)” value was found to be 4.28, the “Percentage after sorting/unbinding percentage” value is 3.8 and the “Percentage before sorting/unbinding percentage” value amounted to 1.01.

B3: human IgG2 anti-mouse CD40 surface displayed antibody, Fc mutant S267E/P271W (antibody, name in EU numbering)
light chain (with the P2A rest): B2 light chain (with the P2A rest)
heavy chain: B2 heavy chain with S262E, P266W, L322G
notes: as for B2
B3: in the experiment with Biotin-FcγRIIB [4], the “Enrichment factor (after/before sorting)” value was found to be 24 and the “Increased factor a (enrichment factor/wild-type enrichment factor)” value was determined as 41.8. For the same molecule, in the experiment with Biotin-FcγRIIB [5], the “Increased factor 2 c Site 1 (combined/point mutation)” value turned out to be 1.5.

B4: human IgG2 anti-mouse CD40 surface displayed antibody, Fc mutant G327S (antibody, name in EU numbering)
light chain (with the P2A rest): B2 light chain (with the P2A rest)
heavy chain: B2 heavy chain with L322S
notes: as for B2
Consider B4, for which, in the experiment with Biotin-FcγRIIB [3], the “Enrichment factor (percentage after sorting/percentage before sorting)” value came out at 6.9, the “Increased factor (mutation enrichment factor/wild-type enrichment factor)” value stood at 7.84, the “Percentage after sorting/unbinding percentage” value is 71.2 and the “Percentage before sorting/unbinding percentage” value stood at 10.3.

B5: human IgG2 anti-mouse CD40 surface displayed antibody, Fc mutant S267E/D270H (antibody, name in EU numbering)
light chain (with the P2A rest): B2 light chain (with the P2A rest)
heavy chain: B2 heavy chain with S262E, D265H, L322G
notes: as for B2
B5: in the experiment with Biotin-FcγRIIB [4], the “Enrichment factor (after/before sorting)” value was found to be 42.7 and the “Increased factor a (enrichment factor/wild-type enrichment factor)” value came out at 74.3. For the same molecule, in the experiment with Biotin-FcγRIIB [5], the “Increased factor 2 c Site 1 (combined/point mutation)” value amounted to 2.6.

B6: human IgG2 anti-mouse CD40 surface displayed antibody, Fc mutant S267E/P271V (antibody, name in EU numbering)
light chain (with the P2A rest): B2 light chain (with the P2A rest)
heavy chain: B2 heavy chain with S262E, P266V, L322G
notes: as for B2
Turning to B6, in the experiment with Biotin-FcγRIIB [4], the “Enrichment factor (after/before sorting)” value is 22.1 and the “Increased factor a (enrichment factor/wild-type enrichment factor)” value stood at 38.4. For the same molecule, the “Increased factor 2 c Site 1 (combined/point mutation)” value with Biotin-FcγRIIB [5] stood at 1.4.

B7: human IgG2 anti-mouse CD40 surface displayed antibody, Fc mutant L328N (antibody, name in EU numbering)
light chain (with the P2A rest): B2 light chain (with the P2A rest)
heavy chain: B2 heavy chain with L322G, L323N
notes: as for B2
B7: in the experiment with Biotin-FcγRIIB [3], the “Enrichment factor (percentage after sorting/percentage before sorting)” value is 2.73, the “Increased factor (mutation enrichment factor/wild-type enrichment factor)” value is 3.11, the “Percentage after sorting/unbinding percentage” value was 50.9 and the “Percentage before sorting/unbinding percentage” value is 18.6.

B8: human IgG2 anti-mouse CD40 surface displayed antibody, Fc mutant S267E/P271Y (antibody, name in EU numbering)
light chain (with the P2A rest): B2 light chain (with the P2A rest)
heavy chain: B2 heavy chain with S262E, P266Y, L322G
notes: as for B2
Turning to B8, in the experiment with Biotin-FcγRIIB [4], the “Enrichment factor (after/before sorting)” value was determined as 19.2 and the “Increased factor a (enrichment factor/wild-type enrichment factor)” value was found to be 33.4. In the experiment with Biotin-FcγRIIB [5], the “Increased factor 2 c Site 1 (combined/point mutation)” value was found to be 1.2.
